Laboratory results: patent US20240327815A1 (Zymeworks, published 2024)

B1: Bamlanivimab (antibody, V domains shown)
VH: QVQLVQSGAEVKKPGSSVKVSCKASGGTFSNYAISWVRQAPGQGLEWMGRIIPILGIANYAQKFQGRVTITADKSTSTAYMELSSLRSEDTAVYYCARGYYEARHYYYYYAMDVWGQGTAVTVSS
VL: not shown
B2: Etesevimab (antibody, V domains shown)
VH: EVQLVESGGGLVQPGGSLRLSCAASGFTVSSNYMSWVRQAPGKGLEWVSVIYSGGSTFYADSVKGRFTISRDNSMNTLFLQMNSLRAEDTAVYYCARVLPMYGDYLDYWGQGTLVTVSS
VL: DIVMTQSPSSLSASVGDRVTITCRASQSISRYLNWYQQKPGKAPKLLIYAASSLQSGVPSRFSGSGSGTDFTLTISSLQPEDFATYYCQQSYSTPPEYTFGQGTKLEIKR
B3: REGN10933 (Casirivimab) (antibody, V domains shown)
VH: QVQLVESGGGLVKPGGSLRLSCAASGFTFSDYYMSWIRQAPGKGLEWVSYITYSGSTIYYADSVKGRFTISRDNAKSSLYLQMNSLRAEDTAVYYCARDRGTTMVPFDYWGQGTLVTVSS
VL: DIQMTQSPSSLSASVGDRVTITCQASQDITNYLNWYQQKPGKAPKLLIYAASNLETGVPSRFSGSGSGTDFTFTISGLQPEDIATYYCQQYDNLPLTFGGGTKVEIKR
B4: REGN10987 (Imdevimab) (antibody, V domains shown)
VH: QVQLVESGGGVVQPGRSLRLSCAASGFTFSNYAMYWVRQAPGKGLEWVAVISYDGSNKYYADSVKGRFTISRDNSKNTLYLQMNSLRTEDTAVYYCASGSDYGDYLLVYWGQGTLVTVSS
VL: QSALTQPASVSGSPGQSITISCTGTSSDVGGYNYVSWYQQHPGKAPKLMIYDVSKRPSGVSNRFSGSKSGNTASLTISGLQSEDEADYYCNSLTSISTWVFGGGTKLTVLR

Assays:
[1] = target: Beta SARS-CoV-2 spike on pseudotyped lentivirus (SARS-CoV-2, UniProt P0DTC2 14-1273); assay: cell-based or functional assay
[2] = target: Alpha SARS-CoV-2 spike on pseudotyped lentivirus (SARS-CoV-2, UniProt P0DTC2 14-1273); assay: cell-based or functional assay
[3] = target: P.1 (Gamma) SARS-CoV-2 spike protein, plate-coated (MSD) (SARS-CoV-2, UniProt P0DTC2 14-1208); assay: MSD competition vs labelled ACE2

Row | Binder | Pseudovirus Neutralization (IC50, nM) [1] [nM] | Pseudovirus Neutralization (IC50, nM) [2] [nM] | IC50 [3] [nM]
1 | B1 | > 100 | 1.9 | 
2 | B2 |  |  | 0.08
3 | B3 |  | 0.05 | 
4 | B4 | 41.1 | 0.13 | 
